B1: Ly2823 (multi-specific antibody)
chain 1: EVQLVESGGGLVKPGGSLKLSCEASRFTFSSYAMSWVRQTPEKRLEWVAAISGGGRYTYYPDSMKGRFTISRDNAKNFLYLQMSSLRSEDTAMYYCARHYDGYLDYWGQGTTLTVSSASTKGPSVFPLAPSSKSTSGGTAALGCLVKDYFPEPVTVSWNSGALTSGVHTFPAVLQSSGLYSLSSVVTVPSSSLGTQTYICNVNHKPSNTKVDKKVEPKSCGGGGSGGGGSGGGGSGGGGSEVQLVESGGGLVQPGGSLRLSCAASGFTFSTYAMNWVRQAPGKGLEWVGRIRSKYNNYATYYADSVKGRFTISRDDSKNSLYLQMNSLKTEDTAVYYCVRHGNFGNSYVSWFAYWGQGTLVTVSSGGGGSDKTHTCPPCPAPELLGPSVFLFPPKPKDTLMISRTPEVTCVVVDVSHEDPEVKFNWYVDGVEVHNAKTKPREEQYNSTYRVVSVLTVLHQDWLNGKEYKCKVSNKALGAPIEKTISKAKGQPREPQVYTLPPSREEMTKNQVSLWCLVKGFYPSDIAVEWESNGQPENNYKTTPPVLDSDGSFFLYSKLTVDKSRWQQGNVFSCSVMHEALHNHYTQKSLSLSPGKGGGGSGGGGSGGGGSGGGGSQVQLVQSGAEVKKPGASVKVSCKASGYTFAGFEMHWVRQAPGQGLEWMGAIDPKTGGTDYNQKFKDRVTMTRDTSISTAYMELSRLRSDDTAVYYCARDLGYFDVWGQGTLVTVSS
chain 2: EVQLVESGGGLVKPGGSLKLSCEASRFTFSSYAMSWVRQTPEKRLEWVAAISGGGRYTYYPDSMKGRFTISRDNAKNFLYLQMSSLRSEDTAMYYCARHYDGYLDYWGQGTTLTVSSASTKGPSVFPLAPSSKSTSGGTAALGCLVKDYFPEPVTVSWNSGALTSGVHTFPAVLQSSGLYSLSSVVTVPSSSLGTQTYICNVNHKPSNTKVDKKVEPKSCGGGGSGGGGSGGGGSGGGGSQAVVTQEPSLTVSPGGTVTLTCRSSTGAVTTSNYANWVQQKPGQAPRGLIGGTNKRAPWTPARFSGSLLGGKAALTITGAQAEDEADYYCALWYSNLWVFGGGTKLTVLGGGGSDKTHTCPPCPAPELLGPSVFLFPPKPKDTLMISRTPEVTCVVVDVSHEDPEVKFNWYVDGVEVHNAKTKPREEQYNSTYRVVSVLTVLHQDWLNGKEYKCKVSNKALGAPIEKTISKAKGQPREPQVYTLPPSREEMTKNQVSLSCAVKGFYPSDIAVEWESNGQPENNYKTTPPVLDSDGSFFLVSKLTVDKSRWQQGNVFSCSVMHEALHNHYTQKSLSLSPGKGGGGSGGGGSGGGGSGGGGSDIQMTQSPSSLSASVGDRVTITCRASQDIRSNLNWYQQKPGGAVKLLIYYTSRLHSGVPSRFSGSGSGTDYTLTISSLQPEDFATYFCQQSEKLPRTFGGGTKVEIR
chain 3: DIVMTQSHKFMSTSIGARVSITCKASQDVRTAVAWYQQKPGQSPKLLIYSASYRYTGVPDRFTGSGSGTDFTFTISSVQAEDLAVYYCQQHYGTPPWTFGGGTKLEIKRTVAAPSVFIFPPSDEQLKSGTASVVCLLNNFYPREAKVQWKVDNALQSGNSQESVTEQDSKDSTYSLSSTLTLSKADYEKHKVYACEVTHQGLSSPVTKSFNRGEC
notes: B7H3/CD3/CD137
B2: Ly2936 (multi-specific antibody)
chain 1: QVQLVQSGAEVKKPGASVKVSCKASGYTFTSYVMHWVRQKPGQGLEWIGYINPYNEGTESTDKFKGRATMTSDKSTSTVYMELSSLRSEDTAVYYCASIYYGYEGTYFGVWGQGTLVTVSSASTKGPSVFPLAPSSKSTSGGTAALGCLVKDYFPEPVTVSWNSGALTSGVHTFPAVLQSSGLYSLSSVVTVPSSSLGTQTYICNVNHKPSNTKVDKKVEPKSCGGGGSGGGGSGGGGSGGGGSEVQLVESGGGLVQPGGSLRLSCAASGFTFSTYAMNWVRQAPGKGLEWVGRIRSKYNNYATYYADSVKGRFTISRDDSKNSLYLQMNSLKTEDTAVYYCVRHGNFGNSYVSWFAYWGQGTLVTVSSGGGGSDKTHTCPPCPAPELLGPSVFLFPPKPKDTLMISRTPEVTCVVVDVSHEDPEVKFNWYVDGVEVHNAKTKPREEQYNSTYRVVSVLTVLHQDWLNGKEYKCKVSNKALGAPIEKTISKAKGQPREPQVYTLPPSREEMTKNQVSLWCLVKGFYPSDIAVEWESNGQPENNYKTTPPVLDSDGSFFLYSKLTVDKSRWQQGNVFSCSVMHEALHNHYTQKSLSLSPGKGGGGSGGGGSGGGGSGGGGSQVQLVQSGAEVKKPGASVKVSCKASGYTFAGFEMHWVRQAPGQGLEWMGAIDPKTGGTDYNQKFKDRVTMTRDTSISTAYMELSRLRSDDTAVYYCARDLGYFDVWGQGTLVTVSS
chain 2: QVQLVQSGAEVKKPGASVKVSCKASGYTFTSYVMHWVRQKPGQGLEWIGYINPYNEGTESTDKFKGRATMTSDKSTSTVYMELSSLRSEDTAVYYCASIYYGYEGTYFGVWGQGTLVTVSSASTKGPSVFPLAPSSKSTSGGTAALGCLVKDYFPEPVTVSWNSGALTSGVHTFPAVLQSSGLYSLSSVVTVPSSSLGTQTYICNVNHKPSNTKVDKKVEPKSCGGGGSGGGGSGGGGSGGGGSQAVVTQEPSLTVSPGGTVTLTCRSSTGAVTTSNYANWVQQKPGQAPRGLIGGTNKRAPWTPARFSGSLLGGKAALTITGAQAEDEADYYCALWYSNLWVFGGGTKLTVLGGGGSDKTHTCPPCPAPELLGPSVFLFPPKPKDTLMISRTPEVTCVVVDVSHEDPEVKFNWYVDGVEVHNAKTKPREEQYNSTYRVVSVLTVLHQDWLNGKEYKCKVSNKALGAPIEKTISKAKGQPREPQVYTLPPSREEMTKNQVSLSCAVKGFYPSDIAVEWESNGQPENNYKTTPPVLDSDGSFFLVSKLTVDKSRWQQGNVFSCSVMHEALHNRFTQKSLSLSPGKGGGGSGGGGSGGGGSGGGGSDIQMTQSPSSLSASVGDRVTITCRASQDIRSNLNWYQQKPGGAVKLLIYYTSRLHSGVPSRFSGSGSGTDYTLTISSLQPEDFATYFCQQSEKLPRTFGGGTKVEIR
chain 3: EIVLTQSPATLSLSPGERATLSCRASSSVSYMHWYQQKPGQAPRPWIYATSNLASGIPARFSGSRSGTDYTLTISSLEPEDFAVYYCQQWSSNTLTFGGGTKVEIKRTVAAPSVFIFPPSDEQLKSGTASVVCLLNNFYPREAKVQWKVDNALQSGNSQESVTEQDSKDSTYSLSSTLTLSKADYEKHKVYACEVTHQGLSSPVTKSFNRGEC
notes: B7H3/CD3/CD137
B3: Ly2940 (bispecific antibody, human IgG1, kappa)
chain 1: QVQLVQSGAEVKKPGASVKVSCKASGYTFTSYVMHWVRQKPGQGLEWIGYINPYNEGTESTDKFKGRATMTSDKSTSTVYMELSSLRSEDTAVYYCASIYYGYEGTYFGVWGQGTLVTVSSASTKGPSVFPLAPSSKSTSGGTAALGCLVKDYFPEPVTVSWNSGALTSGVHTFPAVLQSSGLYSLSSVVTVPSSSLGTQTYICNVNHKPSNTKVDKKVEPKSCDKTHTCPPCPAPELLGPSVFLFPPKPKDTLMISRTPEVTCVVVDVSHEDPEVKFNWYVDGVEVHNAKTKPREEQYNSTYRVVSVLTVLHQDWLNGKEYKCKVSNKALGAPIEKTISKAKGQPREPQVYTLPPSREEMTKNQVSLWCLVKGFYPSDIAVEWESNGQPENNYKTTPPVLDSDGSFFLYSKLTVDKSRWQQGNVFSCSVMHEALHNHYTQKSLSLSPGKGGGGSGGGGSGGGGSGGGGSQVQLVQSGAEVKKPGASVKVSCKASGYTFAGFEMHWVRQAPGQGLEWMGAIDPKTGGTDYNQKFKDRVTMTRDTSISTAYMELSRLRSDDTAVYYCARDLGYFDVWGQGTLVTVSS
chain 2: QVQLVQSGAEVKKPGASVKVSCKASGYTFTSYVMHWVRQKPGQGLEWIGYINPYNEGTESTDKFKGRATMTSDKSTSTVYMELSSLRSEDTAVYYCASIYYGYEGTYFGVWGQGTLVTVSSASTKGPSVFPLAPSSKSTSGGTAALGCLVKDYFPEPVTVSWNSGALTSGVHTFPAVLQSSGLYSLSSVVTVPSSSLGTQTYICNVNHKPSNTKVDKKVEPKSCDKTHTCPPCPAPELLGPSVFLFPPKPKDTLMISRTPEVTCVVVDVSHEDPEVKFNWYVDGVEVHNAKTKPREEQYNSTYRVVSVLTVLHQDWLNGKEYKCKVSNKALGAPIEKTISKAKGQPREPQVYTLPPSREEMTKNQVSLSCAVKGFYPSDIAVEWESNGQPENNYKTTPPVLDSDGSFFLVSKLTVDKSRWQQGNVFSCSVMHEALHNRFTQKSLSLSPGKGGGGSGGGGSGGGGSGGGGSDIQMTQSPSSLSASVGDRVTITCRASQDIRSNLNWYQQKPGGAVKLLIYYTSRLHSGVPSRFSGSGSGTDYTLTISSLQPEDFATYFCQQSEKLPRTFGGGTKVEIR
chain 3: B2 chain 3
notes: B7H3/CD137; anti-CD137 Fv on C-terminal
B4: Ly2937 (multi-specific antibody)
chain 1: not shown
chain 2: QVQLVQSGAEVKKPGASVKVSCKASGYTFTSYVMHWVRQKPGQGLEWIGYINPYNEGTESTDKFKGRATMTSDKSTSTVYMELSSLRSEDTAVYYCASIYYGYEGTYFGVWGQGTLVTVSSASTKGPSVFPLAPSSKSTSGGTAALGCLVKDYFPEPVTVSWNSGALTSGVHTFPAVLQSSGLYSLSSVVTVPSSSLGTQTYICNVNHKPSNTKVDKKVEPKSCGGGGSGGGGSGGGGSGGGGSQIVLTQSPAIMSASPGEKVTMTCSASSSVSYMNWYQQKSGTSPKRWIYDTSKLASGVPAHFRGSGSGTSYSLTISGMEAEDAATYYCQQWSSNPFTFGSGTKLEINGGGGSDKTHTCPPCPAPELLGPSVFLFPPKPKDTLMISRTPEVTCVVVDVSHEDPEVKFNWYVDGVEVHNAKTKPREEQYNSTYRVVSVLTVLHQDWLNGKEYKCKVSNKALGAPIEKTISKAKGQPREPQVYTLPPSREEMTKNQVSLSCAVKGFYPSDIAVEWESNGQPENNYKTTPPVLDSDGSFFLVSKLTVDKSRWQQGNVFSCSVMHEALHNRFTQKSLSLSPGKGGGGSGGGGSGGGGSGGGGSDIQMTQSPSSLSASVGDRVTITCRASQDIRSNLNWYQQKPGGAVKLLIYYTSRLHSGVPSRFSGSGSGTDYTLTISSLQPEDFATYFCQQSEKLPRTFGGGTKVEIR
chain 3: B2 chain 3
notes: B7H3/CD3/CD137

Each binder was assayed against T1, CD137 (human, UniProt Q07011 24-186) (assay: FCM or ELISA, graded).
T1 construct: Whole on GS-H2-huCD137 reporter cells in the reporter assays; also called 4-1BB

Binder | binding result
B1 | binds
B2 | binds
B3 | binds
B4 | binds

— EP4803150A2 (Lyvgen Biopharma Holdings Limited, dated 2026)
